According to paper PMC6158717:

Legend:
TGIF1-HD R167A/R168A = TGIF1-HD R167A/R168A (Homo sapiens, UniProt Q15583 161-250, R167A;R168A); test: X-ray 3.25 A
TGIF1-HD (160-250) = TGIF1-HD (160-250) (Homo sapiens, UniProt Q15583 160-250); test: ITC
TGIF1-HD (171-250) = TGIF1-HD (171-250) (Homo sapiens, UniProt Q15583 171-250); test: ITC
TGIF1-HD (171-250), sequence (Q15583 171-250): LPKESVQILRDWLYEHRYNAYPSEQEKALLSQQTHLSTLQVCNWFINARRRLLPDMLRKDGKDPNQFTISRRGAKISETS

TGIF1-HD (160-250), sequence (Q15583 160-250): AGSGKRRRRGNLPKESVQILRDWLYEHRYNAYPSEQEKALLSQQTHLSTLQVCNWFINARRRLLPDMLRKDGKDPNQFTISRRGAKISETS
TGIF1-HD R167A/R168A, sequence (Q15583 161-250 R167A/R168A): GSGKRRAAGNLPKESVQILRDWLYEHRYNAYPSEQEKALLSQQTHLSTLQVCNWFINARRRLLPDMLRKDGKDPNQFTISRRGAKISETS

B1: canonical TGACA palindrome 16mer (dsDNA)
DNA 1: ATTGACAGCTGTCAAT
DNA 2: ATTGACAGCTGTCAAT
Does B1 bind (TGIF1-HD R167A/R168A)?
Result: binds

And the Kd (TGIF1-HD (160-250))?
The Kd was 170 ± 20 nM.

What about the Kd (TGIF1-HD (171-250)) of the same binder?
Its Kd is 728.1 ± 3 nM.
